In experiment [1] the target is T1, CCR4 expressed on 293/EBNA-1 cells (human, UniProt P51679 1-360).
T1 construct: whole, on cells; also called CCR4 receptor
T1 sequence (looked up): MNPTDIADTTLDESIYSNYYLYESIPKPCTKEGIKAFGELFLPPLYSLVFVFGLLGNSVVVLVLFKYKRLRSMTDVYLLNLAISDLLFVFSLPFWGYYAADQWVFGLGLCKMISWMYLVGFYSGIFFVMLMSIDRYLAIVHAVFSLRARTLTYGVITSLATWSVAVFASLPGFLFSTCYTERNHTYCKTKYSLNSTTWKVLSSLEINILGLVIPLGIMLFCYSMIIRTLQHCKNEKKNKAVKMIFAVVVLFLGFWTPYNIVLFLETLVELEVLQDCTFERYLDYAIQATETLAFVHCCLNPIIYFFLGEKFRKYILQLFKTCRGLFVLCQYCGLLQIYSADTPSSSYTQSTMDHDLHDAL
The experiment in a line: displacement of 1 nM TARC-SEAP from 4x10^5 293/EBNA-1 cells expressing CCR4 by unlabeled TARC. How it is done: The binding experiment was conducted in 200 μl RPMI-1640 containing 20 mM HEPES (pH 7.4), 1% BSA, and 0.02% sodium azide. […] Cells were washed and dissolved in 50 μl 10 mM Tris-HCl (pH 8.0) containing 1% Triton X-100, and treated at 65° C. for 10 minutes to inactivate the phosphatase originated from the cells. After centrifugation, the AP activity in 25 μl of the supernatant was measured. The nonspecific binding was measured using 1 nM SEAP.

In experiment [2] the target is T2, receptor for TARC on Jurkat cell and certain other T-cells.
T2 construct: also called TARC receptor; receptors for TARC
Description: displacement of 2 nM 125I-labeled TARC from Jurkat cells by unlabeled TARC, Scatchard analysis.

Experiment [3] deals with T3, Duffy antigen/receptor for chemokine (DARC) on erythrocytes (UniProt Q16570 1-336).
T3 construct: whole, on cells
T3 sequence (looked up): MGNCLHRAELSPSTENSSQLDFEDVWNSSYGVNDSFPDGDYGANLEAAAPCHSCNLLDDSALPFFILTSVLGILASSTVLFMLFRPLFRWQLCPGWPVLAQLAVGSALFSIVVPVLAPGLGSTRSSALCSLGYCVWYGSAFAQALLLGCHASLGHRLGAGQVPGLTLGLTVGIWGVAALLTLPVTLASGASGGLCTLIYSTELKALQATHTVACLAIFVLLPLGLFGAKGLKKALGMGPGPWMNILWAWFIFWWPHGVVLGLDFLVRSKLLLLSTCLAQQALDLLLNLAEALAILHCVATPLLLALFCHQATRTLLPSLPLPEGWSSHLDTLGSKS
The experiment in a line: displacement of 0.66 nM 125I-labeled TARC from 10^8 erythrocytes by unlabeled TARC, Scatchard analysis. The source says:
It has been known that erythrocyte expresses a Duffy antigen/receptor for chemokine (DARC) to which various chemokines can be bound.

Experiment [4] has as its target T2, receptor for TARC on Jurkat cell and …. Description: saturation binding of 125I-labeled TARC to Jurkat cells, Scatchard analysis. From the text:
To determine the binding constant and the number of receptor, conditions under which the binding reaches equilibrium were examined.

B1: human TARC (Thymus and Activation-Regulated Chemokine), mature secreted form, expressed in and purified from insect cells (ligand)
chain: ARGTNVGRECCLEYFKGAIPLRKLKTWYQTSEDCSRDAIVFVTVQGRAICSDPNNKRVKNAVKYLQSLERS
notes: also called hTARC; unlabeled TARC
As for B1, the concentration for half-maximal inhibition (IC50) in experiment [1] was around 3 nM. Also, the Kd in experiment [2] came out at 2.1 nM; in experiment [3], 17 nM.

B2: 125I-labeled human TARC (ligand)
chain: B1 chain
modifications: 125I label introduced with 125I-labeled Bolton-Hunter reagent (site not stated)
notes: specific activity 81.6 uCi/ug
B2: the Kd in experiment [4] came to 2.1 nM.

One may read the IC50 as the point on the concentration scale where inhibition reaches its midpoint. A word on the Kd: it is a measure of binding affinity in units of concentration. Read a low Kd as higher affinity.

Values taken from patent US6793917 (SHIONOGI, dated 2004).
